Test results: US12534531 (MacroGenics, dated 2026)
Substitutions are numbered along the chain they refer to. One block for each binder: values may come before it.

Legend:
[1] = biological target: T1, human PD-1 expressed on the surface of cells (NSO cells expressing human PD-1; MNFAT-luc2/PD-1 Jurkat cells) (human, UniProt Q15116 21-288); assay: FACS: inhibition of sPD-L1 binding to PD-1 on NSO cells; SM; SD 0.3307
T1 construct: also called cell surface PD-1; PDCD1 transfected NSO cells expressing PD-1
T1 sequence (Q15116 21-288): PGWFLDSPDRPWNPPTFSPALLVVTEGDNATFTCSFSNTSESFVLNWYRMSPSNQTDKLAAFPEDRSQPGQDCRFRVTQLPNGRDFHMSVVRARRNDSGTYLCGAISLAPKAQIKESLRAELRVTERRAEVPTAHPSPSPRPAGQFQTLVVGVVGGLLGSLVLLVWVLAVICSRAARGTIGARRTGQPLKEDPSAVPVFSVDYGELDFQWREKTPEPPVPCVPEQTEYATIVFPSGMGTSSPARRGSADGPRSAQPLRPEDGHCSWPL

[2] = biological target: T2, human LAG-3 expressed on NSO cells (human, UniProt P18627 29-525); assay: FACS saturation binding to NSO cells expressing LAG-3; SM; SD 0.8075
T2 sequence: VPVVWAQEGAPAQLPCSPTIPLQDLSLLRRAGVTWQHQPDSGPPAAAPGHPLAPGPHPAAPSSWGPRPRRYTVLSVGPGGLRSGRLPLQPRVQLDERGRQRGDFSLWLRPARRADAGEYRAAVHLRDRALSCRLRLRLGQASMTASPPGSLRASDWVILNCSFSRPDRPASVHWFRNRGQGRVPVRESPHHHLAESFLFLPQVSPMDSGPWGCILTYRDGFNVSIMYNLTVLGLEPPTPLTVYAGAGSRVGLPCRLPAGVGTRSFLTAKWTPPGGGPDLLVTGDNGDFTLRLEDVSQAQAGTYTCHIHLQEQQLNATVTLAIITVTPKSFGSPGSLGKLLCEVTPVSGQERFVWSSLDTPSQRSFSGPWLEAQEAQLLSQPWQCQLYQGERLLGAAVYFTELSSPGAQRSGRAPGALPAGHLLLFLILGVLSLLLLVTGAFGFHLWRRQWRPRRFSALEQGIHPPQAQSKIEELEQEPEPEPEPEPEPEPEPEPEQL

[3] = biological target: T3, biotinylated-soluble human LAG-3-Fc fusion protein (human, UniProt P18627 23-450, biotinylated (site not stated)); assay: FACS: inhibition of shLAG-3-Fc binding to MHC II on Daudi cells (column head prints EC50); SM; SD 2.9177
T3 construct: whole entry named; also called shLAG-3; shLAG-3-Fc; not shown: Fc
T3 sequence: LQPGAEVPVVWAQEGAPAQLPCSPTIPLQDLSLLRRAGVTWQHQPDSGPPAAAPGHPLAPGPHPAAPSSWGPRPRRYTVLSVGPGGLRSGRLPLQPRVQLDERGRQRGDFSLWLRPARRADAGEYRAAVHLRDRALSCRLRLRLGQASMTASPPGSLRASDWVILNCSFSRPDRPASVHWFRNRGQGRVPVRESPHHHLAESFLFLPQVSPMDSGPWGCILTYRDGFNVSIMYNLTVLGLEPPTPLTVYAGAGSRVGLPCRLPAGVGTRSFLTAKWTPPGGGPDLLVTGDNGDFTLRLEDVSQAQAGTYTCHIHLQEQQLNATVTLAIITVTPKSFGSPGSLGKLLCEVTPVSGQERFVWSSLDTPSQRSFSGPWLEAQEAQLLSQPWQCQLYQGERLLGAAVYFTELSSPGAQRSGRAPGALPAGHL

[4] = biological target: T1, human PD-1 expressed on the surface of …; assay: FACS saturation binding to NSO cells expressing PD-1; SM; SD 0.5742
[5] = biological target: T1, human PD-1 expressed on the surface of …; assay: FACS: inhibition of sPD-L2 binding to PD-1 on NSO cells; SM; SD 0.7736
[6] = biological target: T1, human PD-1 expressed on the surface of …; assay: FACS: inhibition of sPD-L1 binding to PD-1 on NSO cells; SM; SD 0.1692
[7] = biological target: T2, human LAG-3 expressed on NSO cells; assay: FACS saturation binding to NSO cells expressing LAG-3; SM; SD 0.5326
[8] = biological target: T1, human PD-1 expressed on the surface of …; assay: FACS saturation binding to NSO cells expressing PD-1; SM; SD 0.4140
[9] = biological target: T1, human PD-1 expressed on the surface of …; assay: FACS: inhibition of sPD-L2 binding to PD-1 on NSO cells; SM; SD 0.5869
[10] = biological target: T3, biotinylated-soluble human LAG-3-Fc …; assay: FACS: inhibition of shLAG-3-Fc binding to MHC II on Daudi cells (column head prints EC50); SM; SD 1.1398
[11] = biological target: T1, human PD-1 expressed on the surface of …; assay: FACS saturation binding to NSO cells expressing PD-1; SM; SD 0.4324
[12] = biological target: T1, human PD-1 expressed on the surface of …; assay: FACS: inhibition of sPD-L2 binding to PD-1 on NSO cells; SM; SD 0.4285
[13] = biological target: T3, biotinylated-soluble human LAG-3-Fc …; assay: FACS: inhibition of shLAG-3-Fc binding to MHC II on Daudi cells (column head prints EC50); SM; SD 1.6465
[14] = biological target: T1, human PD-1 expressed on the surface of …; assay: FACS: inhibition of sPD-L1 binding to PD-1 on NSO cells; SM; SD 0.1485
[15] = biological target: T2, human LAG-3 expressed on NSO cells; assay: FACS saturation binding to NSO cells expressing LAG-3; SM; SD 0.2231
[16] = biological target: T2, human LAG-3 expressed on NSO cells; assay: FACS saturation binding to NSO cells expressing LAG-3; single experiment
[17] = biological target: T1, human PD-1 expressed on the surface of …; assay: FACS saturation binding to NSO cells expressing PD-1; single experiment
[18] = biological target: T3, biotinylated-soluble human LAG-3-Fc …; assay: FACS: inhibition of shLAG-3-Fc binding to MHC II on Daudi cells (column head prints EC50); SM; SD 0.1104
[19] = biological target: T1, human PD-1 expressed on the surface of …; assay: FACS: inhibition of sPD-L1 binding to PD-1 on NSO cells; SM; SD 0.0007
[20] = biological target: T1, human PD-1 expressed on the surface of …; assay: FACS: inhibition of sPD-L2 binding to PD-1 on NSO cells; SM; SD 0.3154

B2: DART D (bispecific antibody, human IgG4 S228P, kappa)
chain 1: EIVLTQSPATLSLSPGERATLSCRASESVDNYGMSFMNWFQQKPGQPPKLLIHAASNQGSGVPSRFSGSGSGTDFTLTISSLEPEDFAVYFCQQSKEVPYTFGGGTKVEIKGGGSGGGGQVQLVQSGAEVKKPGASVKVSCKASGYTFTNYGMNWVRQAPGQGLEWMGWINTYTGESTYADDFEGRFVFSMDTSASTAYLQISSLKAEDTAVYYCARESLYDYYSMDYWGQGTTVTVSSLGGGSGASTKGPSVFPLAPCSRSTSESTAALGCLVKDYFPEPVTVSWNSGALTSGVHTFPAVLQSSGLYSLSSVVTVPSSSLGTKTYTCNVDHKPSNTKVDKRVESKYGPPCPPCPAPEFLGGPSVFLFPPKPKDTLYITREPEVTCVVVDVSQEDPEVQFNWYVDGVEVHNAKTKPREEQFNSTYRVVSVLTVLHQDWLNGKEYKCKVSNKGLPSSIEKTISKAKGQPREPQVYTLPPSQEEMTKNQVSLTCLVKGFYPSDIAVEWESNGQPENNYKTTPPVLDSDGSFFLYSRLTVDKSRWQEGNVFSCSVMHEALHNHYTQKSLSLSLG
chain 2: DIVMTQTPLSLSVTPGQPASISCKSSQSLLHSDAKTYLNWLLQKPGQPPERLIYLVSELDSGVPDRFSGSGSGTDFTLKISRVEAEDVGVYYCWQGTHFPYTFGGGTKVEIKGGGSGGGGQVQLVQSGAEVKKPGASVKVSCKASGYSFTSYWMNWVRQAPGQGLEWIGVIHPSDSETWLDQKFKDRVTITVDKSTSTAYMELSSLRSEDTAVYYCAREHYGTSPFAYWGQGTLVTVSSLGGGSGRTVAAPSVFIFPPSDEQLKSGTASVVCLLNNFYPREAKVQWKVDNALQSGNSQESVTEQDSKDSTYSLSSTLTLSKADYEKHKVYACEVTHQGLSSPVTKSFNRGEC
IC50 [6]: 1550 nM | EC50 [7]: 898 nM | EC50 [8]: 2230 nM | IC50 [9]: 3130 nM | IC50 [10]: 1180 nM

B3: DART A (bispecific antibody, human IgG4 S228P)
chain 1: DIVMTQTPLSLSVTPGQPASISCKSSQSLLHSDAKTYLNWLLQKPGQPPERLIYLVSELDSGVPDRFSGSGSGTDFTLKISRVEAEDVGVYYCWQGTHFPYTFGGGTKVEIKGGGSGGGGQVQLVQSGAEVKKPGASVKVSCKASGYSFTSYWMNWVRQAPGQGLEWIGVIHPSDSETWLDQKFKDRVTITVDKSTSTAYMELSSLRSEDTAVYYCAREHYGTSPFAYWGQGTLVTVSSGGCGGGEVAACEKEVAALEKEVAALEKEVAALEKESKYGPPCPPCPAPEFLGGPSVFLFPPKPKDTLYITREPEVTCVVVDVSQEDPEVQFNWYVDGVEVHNAKTKPREEQFNSTYRVVSVLTVLHQDWLNGKEYKCKVSNKGLPSSIEKTISKAKGQPREPQVYTLPPSQEEMTKNQVSLTCLVKGFYPSDIAVEWESNGQPENNYKTTPPVLDSDGSFFLYSRLTVDKSRWQEGNVFSCSVMHEALHNHYTQKSLSLSLG
chain 2: EIVLTQSPATLSLSPGERATLSCRASESVDNYGMSFMNWFQQKPGQPPKLLIHAASNQGSGVPSRFSGSGSGTDFTLTISSLEPEDFAVYFCQQSKEVPYTFGGGTKVEIKGGGSGGGGQVQLVQSGAEVKKPGASVKVSCKASGYTFTNYGMNWVRQAPGQGLEWMGWINTYTGESTYADDFEGRFVFSMDTSASTAYLQISSLKAEDTAVYYCARESLYDYYSMDYWGQGTTVTVSSGGCGGGKVAACKEKVAALKEKVAALKEKVAALKE
EC50 [11]: 1930 nM | IC50 [12]: 1630 nM | IC50 [13]: 1380 nM | IC50 [14]: 964 nM | EC50 [15]: 840 nM

The remaining lines, values ahead:

IC50 [1]: 1650 nM | EC50 [2]: 925 nM | IC50 [3]: 3270 nM | EC50 [4]: 3220 nM | IC50 [5]: 2950 nM
B1: DART E (bispecific antibody, human IgG4 S228P, kappa)
chain 1: DIVMTQTPLSLSVTPGQPASISCKSSQSLLHSDAKTYLNWLLQKPGQPPERLIYLVSELDSGVPDRFSGSGSGTDFTLKISRVEAEDVGVYYCWQGTHFPYTFGGGTKVEIKGGGSGGGGQVQLVQSGAEVKKPGASVKVSCKASGYSFTSYWMNWVRQAPGQGLEWIGVIHPSDSETWLDQKFKDRVTITVDKSTSTAYMELSSLRSEDTAVYYCAREHYGTSPFAYWGQGTLVTVSSLGGGSGASTKGPSVFPLAPCSRSTSESTAALGCLVKDYFPEPVTVSWNSGALTSGVHTFPAVLQSSGLYSLSSVVTVPSSSLGTKTYTCNVDHKPSNTKVDKRVESKYGPPCPPCPAPEFLGGPSVFLFPPKPKDTLYITREPEVTCVVVDVSQEDPEVQFNWYVDGVEVHNAKTKPREEQFNSTYRVVSVLTVLHQDWLNGKEYKCKVSNKGLPSSIEKTISKAKGQPREPQVYTLPPSQEEMTKNQVSLTCLVKGFYPSDIAVEWESNGQPENNYKTTPPVLDSDGSFFLYSRLTVDKSRWQEGNVFSCSVMHEALHNHYTQKSLSLSLG
chain 2: EIVLTQSPATLSLSPGERATLSCRASESVDNYGMSFMNWFQQKPGQPPKLLIHAASNQGSGVPSRFSGSGSGTDFTLTISSLEPEDFAVYFCQQSKEVPYTFGGGTKVEIKGGGSGGGGQVQLVQSGAEVKKPGASVKVSCKASGYTFTNYGMNWVRQAPGQGLEWMGWINTYTGESTYADDFEGRFVFSMDTSASTAYLQISSLKAEDTAVYYCARESLYDYYSMDYWGQGTTVTVSSLGGGSGRTVAAPSVFIFPPSDEQLKSGTASVVCLLNNFYPREAKVQWKVDNALQSGNSQESVTEQDSKDSTYSLSSTLTLSKADYEKHKVYACEVTHQGLSSPVTKSFNRGEC

EC50 [16]: 1080 nM | EC50 [17]: 1760 nM | EC90 [17]: 12300 nM | IC50 [18]: 408 nM | IC50 [19]: 1150 nM | IC50 [20]: 2120 nM
B4: DART B (bispecific antibody, human IgG4 S228P)
chain 1: B3 chain 1 with A34G
chain 2: B3 chain 2
